Source: patent US20240301049A1 (Ablynx, published 2024)

T1: cyno IL-6 (cynomolgus monkey, UniProt P79341 28-212, limits assumed)
T1 sequence (looked up): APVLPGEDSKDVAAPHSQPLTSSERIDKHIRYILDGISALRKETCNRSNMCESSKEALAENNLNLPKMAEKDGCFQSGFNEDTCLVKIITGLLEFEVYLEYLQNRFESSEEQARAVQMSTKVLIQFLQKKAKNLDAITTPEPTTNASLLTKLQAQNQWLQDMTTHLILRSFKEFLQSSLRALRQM

B1: F027201026 (bispecific antibody)
chain: EVQLVESGGGVVQPGGSLRLSCTASGFTFSTADMGWFRQAPGKGREFVARISGIDGTTYYDEPVKGRFTISRDNSKNTVYLQMNSLRPEDTALYYCRSPRYADQWSAYDYWGQGTLVKVSSGGGGSGGGSEVQLVESGGGVVQPGGSLRLSCAASGFTFRSFGMSWVRQAPGKGPEWVSSISGSGSDTLYADSVKGRFTISRDNSKNTLYLQMNSLRPEDTALYYCTIGGSLSRSSQGTLVTVSSGGGGSGGGSDVQLVESGGGVVQPGGSLRLSCAASGRTFSNYAMAWFRQAPGKEREFVAVISYAGGRTYYADSVKGRFTISRDNAKNTVYLQMNSLRPEDTALYYCAAVDSPLIATHPRGYDYWGQGTLVTVSSGGGGSGGGSEVQLVESGGGVVQPGGSLRLSCAASGIIFSINAMGWYRQAPGKQRELVADIFPFGSTEYADSVKGRFTISRDNAKNTVYLQMNSLRPEDTALYYCHSYDPRGDDYWGQGTLVTVSS
B2: F027201027 (bispecific antibody)
chain: DVQLVESGGGVVQPGGSLRLSCAASGRTFSNYAMAWFRQAPGKEREFVAVISYAGGRTYYADSVKGRFTISRDNAKNTVYLQMNSLRPEDTALYYCAAVDSPLIATHPRGYDYWGQGTLVTVSSGGGGSGGGSEVQLVESGGGVVQPGGSLRLSCAASGFTFRSFGMSWVRQAPGKGPEWVSSISGSGSDTLYADSVKGRFTISRDNSKNTLYLQMNSLRPEDTALYYCTIGGSLSRSSQGTLVTVSSGGGGSGGGSEVQLVESGGGVVQPGGSLRLSCAASGIIFSINAMGWYRQAPGKQRELVADIFPFGSTEYADSVKGRFTISRDNAKNTVYLQMNSLRPEDTALYYCHSYDPRGDDYWGQGTLVTVSSGGGGSGGGSEVQLVESGGGVVQPGGSLRLSCTASGFTFSTADMGWFRQAPGKGREFVARISGIDGTTYYDEPVKGRFTISRDNSKNTVYLQMNSLRPEDTALYYCRSPRYADQWSAYDYWGQGTLVKVSS
B3: F027201028 (bispecific antibody)
chain: DVQLVESGGGVVQPGGSLRLSCAASGRTFSNYAMAWFRQAPGKEREFVAVISYAGGRTYYADSVKGRFTISRDNAKNTVYLQMNSLRPEDTALYYCAAVDSPLIATHPRGYDYWGQGTLVTVSSGGGGSGGGSEVQLVESGGGVVQPGGSLRLSCAASGIIFSINAMGWYRQAPGKQRELVADIFPFGSTEYADSVKGRFTISRDNAKNTVYLQMNSLRPEDTALYYCHSYDPRGDDYWGQGTLVTVSSGGGGSGGGSEVQLVESGGGVVQPGGSLRLSCAASGFTFRSFGMSWVRQAPGKGPEWVSSISGSGSDTLYADSVKGRFTISRDNSKNTLYLQMNSLRPEDTALYYCTIGGSLSRSSQGTLVTVSSGGGGSGGGSEVQLVESGGGVVQPGGSLRLSCTASGFTFSTADMGWFRQAPGKGREFVARISGIDGTTYYDEPVKGRFTISRDNSKNTVYLQMNSLRPEDTALYYCRSPRYADQWSAYDYWGQGTLVKVSS
B4: F027200153 (bispecific antibody)
chain: EVQLVESGGGVVQPGGSLRLSCTASGFTFSTADMGWFRQAPGKGREFVARISGIDGTTYYDEPVKGRFTISRDNSKNTVYLQMNSLRPEDTALYYCRSPRYADQWSAYDYWGQGTLVKVSSGGGGSGGGSEVQLVESGGGVVQPGGSLRLSCAASGFTFRSFGMSWVRQAPGKGPEWVSSISGSGSDTLYADSVKGRFTISRDNSKNTLYLQMNSLRPEDTALYYCTIGGSLSRSSQGTLVTVSSGGGGSGGGSEVQLVESGGGVVQPGGSLRLSCAASGIIFSINAMGWYRQAPGKQRELVADIFPFGSTEYADSVKGRFTISRDNAKNTVYLQMNSLRPEDTALYYCHSYDPRGDDYWGQGTLVTVSSGGGGSGGGSEVQLVESGGGVVQPGGSLRLSCAASGRTFSSYVMGWFRQAPGKEREFVSTINWAGSRGYYADSVKGRFTISRDNAKNTVYLQMNSLRPEDTALYYCAASAGGFLVPRVGQGYDYWGQGTLVTVSS
B5: F027200167 (bispecific antibody)
chain: EVQLVESGGGVVQPGGSLRLSCAASGIIFSINAMGWYRQAPGKQRELVADIFPFGSTEYADSVKGRFTISRDNAKNTVYLQMNSLRPEDTALYYCHSYDPRGDDYWGQGTLVTVSSGGGGSGGGSEVQLVESGGGVVQPGGSLRLSCAASGRTFSSYVMGWFRQAPGKEREFVSTINWAGSRGYYADSVKGRFTISRDNAKNTVYLQMNSLRPEDTALYYCAASAGGFLVPRVGQGYDYWGQGTLVTVSSGGGGSGGGSEVQLVESGGGVVQPGGSLRLSCAASGFTFRSFGMSWVRQAPGKGPEWVSSISGSGSDTLYADSVKGRFTISRDNSKNTLYLQMNSLRPEDTALYYCTIGGSLSRSSQGTLVTVSSGGGGSGGGSEVQLVESGGGVVQPGGSLRLSCTASGFTFSTADMGWFRQAPGKGREFVARISGIDGTTYYDEPVKGRFTISRDNSKNTVYLQMNSLRPEDTALYYCRSPRYADQWSAYDYWGQGTLVKVSS
B6: F027200168 (bispecific antibody)
chain: EVQLVESGGGVVQPGGSLRLSCAASGIIFSINAMGWYRQAPGKQRELVADIFPFGSTEYADSVKGRFTISRDNAKNTVYLQMNSLRPEDTALYYCHSYDPRGDDYWGQGTLVTVSSGGGGSGGGSEVQLVESGGGVVQPGGSLRLSCAASGFTFRSFGMSWVRQAPGKGPEWVSSISGSGSDTLYADSVKGRFTISRDNSKNTLYLQMNSLRPEDTALYYCTIGGSLSRSSQGTLVTVSSGGGGSGGGSEVQLVESGGGVVQPGGSLRLSCAASGRTFSSYVMGWFRQAPGKEREFVSTINWAGSRGYYADSVKGRFTISRDNAKNTVYLQMNSLRPEDTALYYCAASAGGFLVPRVGQGYDYWGQGTLVTVSSGGGGSGGGSEVQLVESGGGVVQPGGSLRLSCTASGFTFSTADMGWFRQAPGKGREFVARISGIDGTTYYDEPVKGRFTISRDNSKNTVYLQMNSLRPEDTALYYCRSPRYADQWSAYDYWGQGTLVKVSS
B7: F027200154 (bispecific antibody)
chain: EVQLVESGGGVVQPGGSLRLSCTASGFTFSTADMGWFRQAPGKGREFVARISGIDGTTYYDEPVKGRFTISRDNSKNTVYLQMNSLRPEDTALYYCRSPRYADQWSAYDYWGQGTLVKVSSGGGGSGGGSEVQLVESGGGVVQPGGSLRLSCAASGFTFRSFGMSWVRQAPGKGPEWVSSISGSGSDTLYADSVKGRFTISRDNSKNTLYLQMNSLRPEDTALYYCTIGGSLSRSSQGTLVTVSSGGGGSGGGSEVQLVESGGGVVQPGGSLRLSCAASGIIFSINAMGWYRQAPGKQRELVADIFPFGSTEYADSVKGRFTISRDNAKNTVYLQMNSLRPEDTALYYCHSYDPRGDDYWGQGTLVTVSSGGGGSGGGSDVQLVESGGGVVQPGGSLRLSCAASGRTFSNYAMAWFRQAPGKEREFVAVISYAGGRTYYADSVKGRFTISRDNAKNTVYLQMNSLRPEDTALYYCAAVDSPLIATHPRGYDYWGQGTLVTVSS
B8: F027200215 (bispecific antibody)
chain: EVQLVESGGGVVQPGGSLRLSCAASGIIFSINAMGWYRQAPGKQRELVADIFPFGSTEYADSVKGRFTISRDNAKNTVYLQMNSLRPEDTALYYCHSYDPRGDDYWGQGTLVTVSSGGGGSGGGSDVQLVESGGGVVQPGGSLRLSCAASGRTFSNYAMAWFRQAPGKEREFVAVISYAGGRTYYADSVKGRFTISRDNAKNTVYLQMNSLRPEDTALYYCAAVDSPLIATHPRGYDYWGQGTLVTVSSGGGGSGGGSEVQLVESGGGVVQPGGSLRLSCAASGFTFRSFGMSWVRQAPGKGPEWVSSISGSGSDTLYADSVKGRFTISRDNSKNTLYLQMNSLRPEDTALYYCTIGGSLSRSSQGTLVTVSSGGGGSGGGSEVQLVESGGGVVQPGGSLRLSCTASGFTFSTADMGWFRQAPGKGREFVARISGIDGTTYYDEPVKGRFTISRDNSKNTVYLQMNSLRPEDTALYYCRSPRYADQWSAYDYWGQGTLVKVSS
B9: F027200987 (bispecific antibody)
chain: EVQLVESGGGVVQPGGSLRLSCAASGFSLDYYGVGWFRQAPGKEREGVSCISSSEGDTYYADSVKGRFTISRDNAKNTVYLQMNSLRPEDTALYYCATDLSDYGVCSRWPSPYDYWGQGTLVKVSSGGGGSGGGSEVQLVESGGGVVQPGGSLRLSCAASGFTFRSFGMSWVRQAPGKGPEWVSSISGSGSDTLYADSVKGRFTISRDNSKNTLYLQMNSLRPEDTALYYCTIGGSLSRSSQGTLVTVSSGGGGSGGGSEVQLVESGGGVVQPGGSLRLSCAASGFTLAYYAIGWFRQAPGKEREGVSCISGSVGTTYYADSVKGRFTISRDNAKNTVYLQMNSLRPEDTALYYCVRSSWFDCGVQGRDLGNEYDYRGQGTLVTVSSGGGGSGGGSEVQLVESGGGVVQPGGSLRLSCTASGFTFSTADMGWFRQAPGKGREFVARISGIDGTTYYDEPVKGRFTISRDNSKNTVYLQMNSLRPEDTALYYCRSPRYADQWSAYDYWGQGTLVKVSS
B10: F027200989 (bispecific antibody)
chain: EVQLVESGGGVVQPGGSLRLSCTASGFTFSTADMGWFRQAPGKGREFVARISGIDGTTYYDEPVKGRFTISRDNSKNTVYLQMNSLRPEDTALYYCRSPRYADQWSAYDYWGQGTLVKVSSGGGGSGGGSEVQLVESGGGVVQPGGSLRLSCAASGFSLDYYGVGWFRQAPGKEREGVSCISSSEGDTYYADSVKGRFTISRDNAKNTVYLQMNSLRPEDTALYYCATDLSDYGVCSRWPSPYDYWGQGTLVKVSSGGGGSGGGSEVQLVESGGGVVQPGGSLRLSCAASGFTFRSFGMSWVRQAPGKGPEWVSSISGSGSDTLYADSVKGRFTISRDNSKNTLYLQMNSLRPEDTALYYCTIGGSLSRSSQGTLVTVSSGGGGSGGGSEVQLVESGGGVVQPGGSLRLSCAASGFTLAYYAIGWFRQAPGKEREGVSCISGSVGTTYYADSVKGRFTISRDNAKNTVYLQMNSLRPEDTALYYCVRSSWFDCGVQGRDLGNEYDYRGQGTLVTVSS

Molecular target: human IL-6 (human, UniProt P05231 30-212)
Assay: cell-based or functional assay

B1 and B2 are within 1.5-fold of each other in “IC50 hIL-6 TF1 proliferation assay” value: 0.303 nM for the first, 0.317 nM for the second.

Compared with B3, B4 is 3.5-fold higher in “IC50 hIL-6 TF1 proliferation assay” value: 0.293 nM for the first, 1.03 nM for the second.

B5 and B6 are within 1.5-fold of each other in “IC50 hIL-6 TF1 proliferation assay” value: 1.27 nM for the first, 0.966 nM for the second.

B7 and B8 are within 1.5-fold of each other in “IC50 hIL-6 TF1 proliferation assay” value: 0.415 nM for the first, 0.302 nM for the second.

B9 and B10 are within 1.5-fold of each other in “IC50 hIL-6 TF1 proliferation assay” value: 0.143 nM for the first, 0.127 nM for the second.

Molecular target: T1, cyno IL-6
Assay: cell-based or functional assay

Compared with B1, B2 is lower in “Ratio IC50 cyno IL-6/hIL-6” value: 1.2 ratio for the first, 0.6 ratio for the second.

Going from B3 to B4, the “Ratio IC50 cyno IL-6/hIL-6” value rises from 1.1 ratio to 2.5 ratio.

Going from B5 to B6, the “Ratio IC50 cyno IL-6/hIL-6” value falls from 2.5 ratio to 1.6 ratio.

First: B7
Second: B8
The “Ratio IC50 cyno IL-6/hIL-6” value of the first is higher: 2.1 ratio for the first, 2 ratio for the second.

First: B9
Second: B10
The “Ratio IC50 cyno IL-6/hIL-6” value of the first is lower: 29.4 ratio for the first, 38.3 ratio for the second.

Molecular target: human TNF-α (human, UniProt P01375 77-233)
Assay: cell-based or functional assay

Sequence of human TNF-α (P01375 77-233 limits assumed): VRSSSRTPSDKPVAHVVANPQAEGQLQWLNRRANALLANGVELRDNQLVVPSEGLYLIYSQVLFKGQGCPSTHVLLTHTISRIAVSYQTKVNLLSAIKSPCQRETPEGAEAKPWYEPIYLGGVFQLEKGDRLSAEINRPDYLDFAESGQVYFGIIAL

B1 and B2 are within 1.5-fold of each other in “IC50 hTNF-α Nfkb assay” value: 0.0852 nM for the first, 0.0603 nM for the second.

First: B3
Second: B4
The “IC50 hTNF-α Nfkb assay” value of the first is 2.3-fold lower: 0.061 nM for the first, 0.139 nM for the second.

B5 and B6 are within 1.5-fold of each other in “IC50 hTNF-α Nfkb assay” value: 0.171 nM for the first, 0.14 nM for the second.

B7 and B8 are within 1.5-fold of each other in “IC50 hTNF-α Nfkb assay” value: 0.164 nM for the first, 0.239 nM for the second.

Molecular target: cyno TNF-α (cynomolgus monkey, UniProt P79337 77-233)
Assay: cell-based or functional assay

Sequence of cyno TNF-α (P79337 77-233 limits assumed): as the sequence (P01375 77-233 limits assumed) above, with L37V, R44T, T72N, R138L counted along it

Compared with B1, B2 is higher in “Ratio IC50 cyno TNFα/hTNFα” value: 2.2 ratio for the first, 2.5 ratio for the second.

Compared with B3, B4 is lower in “Ratio IC50 cyno TNFα/hTNFα” value: 3.1 ratio for the first, 2.7 ratio for the second.

Compared with B5, B6 is higher in “Ratio IC50 cyno TNFα/hTNFα” value: 3.1 ratio for the first, 3.3 ratio for the second.

Going from B7 to B8, the “Ratio IC50 cyno TNFα/hTNFα” value falls from 2.8 ratio to 2.7 ratio.
